Patent US20260009052, “CAS12 PROTEINS AND USES THEREOF” (GUANGZHOU REFORGENE MEDICINE CO., LTD., published 2026)

Tests used:
[1] = molecular target: T1, C12-279 Mut-02-1-426-846-858-860 (C12-279-V4) (synthetic construct, I1R,Q186R,D352R,D426R,846R,858R,L860R); experiment: cell_activity; PAM TTG; mutant PAM 5'-WTN-3' by Example 17
T1 chain: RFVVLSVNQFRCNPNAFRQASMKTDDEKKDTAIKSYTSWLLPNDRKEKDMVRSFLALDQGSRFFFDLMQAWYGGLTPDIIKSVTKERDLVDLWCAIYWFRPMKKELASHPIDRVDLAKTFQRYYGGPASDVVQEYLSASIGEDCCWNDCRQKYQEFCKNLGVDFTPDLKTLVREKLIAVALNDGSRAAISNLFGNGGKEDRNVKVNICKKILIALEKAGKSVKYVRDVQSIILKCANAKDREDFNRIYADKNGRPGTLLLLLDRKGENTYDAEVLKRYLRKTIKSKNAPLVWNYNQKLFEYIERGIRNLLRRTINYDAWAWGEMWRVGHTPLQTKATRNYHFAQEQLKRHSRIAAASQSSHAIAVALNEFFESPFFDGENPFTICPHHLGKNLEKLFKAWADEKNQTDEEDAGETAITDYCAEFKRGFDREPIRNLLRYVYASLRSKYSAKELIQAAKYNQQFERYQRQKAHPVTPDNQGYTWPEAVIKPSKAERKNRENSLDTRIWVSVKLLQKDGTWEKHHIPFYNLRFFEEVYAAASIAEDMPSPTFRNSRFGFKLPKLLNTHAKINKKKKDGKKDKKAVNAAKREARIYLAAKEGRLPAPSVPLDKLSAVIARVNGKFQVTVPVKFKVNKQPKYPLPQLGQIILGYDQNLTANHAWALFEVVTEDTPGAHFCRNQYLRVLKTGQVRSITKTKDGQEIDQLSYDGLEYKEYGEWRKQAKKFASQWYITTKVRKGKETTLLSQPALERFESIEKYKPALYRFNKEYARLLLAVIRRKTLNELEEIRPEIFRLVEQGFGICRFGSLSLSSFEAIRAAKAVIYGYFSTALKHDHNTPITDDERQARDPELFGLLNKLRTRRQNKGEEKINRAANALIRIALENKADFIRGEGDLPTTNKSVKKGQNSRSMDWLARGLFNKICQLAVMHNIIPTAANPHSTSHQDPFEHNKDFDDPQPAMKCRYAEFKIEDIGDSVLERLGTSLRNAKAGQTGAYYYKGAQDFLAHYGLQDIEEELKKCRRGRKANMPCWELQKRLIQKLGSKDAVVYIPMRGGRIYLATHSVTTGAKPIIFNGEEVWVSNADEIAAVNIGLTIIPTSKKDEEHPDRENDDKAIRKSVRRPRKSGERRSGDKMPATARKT

C12-279 Mut-03 = molecular target: T2, C12-279 Mut-03 (synthetic construct, G184R,Q186R,D352R); experiment: cell_activity; PAM TTG
T2 chain: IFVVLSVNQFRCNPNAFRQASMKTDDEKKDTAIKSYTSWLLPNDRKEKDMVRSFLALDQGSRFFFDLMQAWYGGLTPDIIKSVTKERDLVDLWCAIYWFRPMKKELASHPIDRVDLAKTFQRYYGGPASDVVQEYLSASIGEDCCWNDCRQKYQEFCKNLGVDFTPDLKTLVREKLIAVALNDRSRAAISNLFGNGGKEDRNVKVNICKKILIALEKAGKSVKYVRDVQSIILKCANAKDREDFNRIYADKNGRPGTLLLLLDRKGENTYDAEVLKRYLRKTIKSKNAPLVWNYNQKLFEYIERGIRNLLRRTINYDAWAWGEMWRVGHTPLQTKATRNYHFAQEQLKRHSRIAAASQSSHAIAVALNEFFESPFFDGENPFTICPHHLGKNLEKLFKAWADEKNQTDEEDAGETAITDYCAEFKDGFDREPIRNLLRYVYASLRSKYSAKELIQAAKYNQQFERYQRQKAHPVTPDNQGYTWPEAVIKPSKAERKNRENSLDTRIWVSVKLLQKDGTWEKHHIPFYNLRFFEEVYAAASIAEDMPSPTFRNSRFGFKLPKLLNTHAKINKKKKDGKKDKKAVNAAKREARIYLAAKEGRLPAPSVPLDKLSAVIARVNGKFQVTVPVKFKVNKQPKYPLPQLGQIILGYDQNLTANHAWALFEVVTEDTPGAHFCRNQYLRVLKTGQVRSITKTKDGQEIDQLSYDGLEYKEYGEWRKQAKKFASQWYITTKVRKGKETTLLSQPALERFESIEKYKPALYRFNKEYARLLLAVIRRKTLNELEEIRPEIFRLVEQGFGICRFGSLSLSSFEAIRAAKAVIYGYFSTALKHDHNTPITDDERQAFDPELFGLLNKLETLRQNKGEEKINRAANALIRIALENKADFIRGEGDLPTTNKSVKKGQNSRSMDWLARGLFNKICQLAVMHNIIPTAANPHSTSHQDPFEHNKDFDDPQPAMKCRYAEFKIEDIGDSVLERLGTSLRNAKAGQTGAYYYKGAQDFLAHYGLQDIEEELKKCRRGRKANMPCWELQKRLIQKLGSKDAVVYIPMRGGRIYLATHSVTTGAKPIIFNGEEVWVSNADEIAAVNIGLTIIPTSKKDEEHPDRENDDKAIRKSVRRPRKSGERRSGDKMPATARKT
Experimental: Transfection: transfection was performed 12-14 h after plating. 1.5 μL PEI (Yeasen Biotechnology, 40815ES03, Polyethylenimine Linear (PEI) MW25000) and 500 ng mutation clone plasmid were added to 100 μL Opti-MEM per well of the 24-well plate, mixed, and added to the NAAN cell line for cell transfection after placing at room temperature for 20 min. After overnight transfection, a fresh culture medium was replaced, and the culture was continued for 72 h, followed by flow cytometry. Editing efficiencies of different mutant clones were characterized by the proportion of GFP-positive cells.
Editing efficiency of some selected mutants was tested in Reporter3 cell line using the same manner as described for the NAAN reporter system, except that the cell line was changed from NAAN cell line to Reporter3 cell line.

B1: C12-279 Reporter3 sgRNA ; Reporter3 target (ssRNA ; dsDNA)
RNA: GUAAUGCGUCUCCCAUUGACGCCUCACCUCGCGACGCAAUGAUG
DNA 1: CTCACCTCGCGACGCAATGATG
DNA 2: CATCATTGCGTCGCGAGGTGAG
B1 was tested, and the binding signal [1] was 3.88 fold of C12-279 and the binding signal (C12-279 Mut-03) was 2.28 fold of C12-279.
